In patent US20240325557A1, “TREATMENT OF CANCER” (INNATE PHARMA, priority 2020, published 2024):
Where a chain is given by its changes, count along the chain named.

B1: 5E7 (antibody, V domains shown)
VH: QVQLQQPGAELVKPGASVKLSCKASGYIFTSYWMHWVKQRPGQGLEWIGEIDPSDSYTNYNQKFKGKATLTLDKSSSTTYMQLSSLTSEDSAVYYCVRGYGNYGDYWGQGTTLTVSS
VL: DVVMTQAAFSNPVTLGTSASISCRSSKSLLHSNGITYLYWYLQKPGQSPQLLIYQMSNLASGVPDRFSSSGSGTDFTLRISRVEAEDVGVYYCAQNLELPWTFGGGTKLEIK
B2: 10B12: anti-Nectin-4 antibody, VH SEQ ID NO: 24, VL SEQ ID NO: 25, binds junction of domain C1 and V (antibody, listed as Mus musculus, V domains shown)
VH: B1 VH with I28T, L72V, T79A
VL: B1 VL with V2I
B3: N41 (antibody, V domains shown)
VH: QVQLKQSGPGLVQPSQSLSITCTVSGFSLTNYGVHWVRQSPGKGLEWLGVIWSGGSTDYNAAFISRLSISKDTSKSQVFFKMNSLQADDTAIYYCARELIHAMDNWGQGTSVTVSS
VL: DIQMTQSPASLSVSVGETVTITCRASENIYSNLAWYQQKQGNSPQLLVFAATNLADGVPSRFSGSGSGTQYSLKINSLQSEDFGTYYCQHFWGTPTFGGGTKLEIK

The molecules below were run against T1, Nectin-4 Mutant 7bis (A72P/G73N/K197T/S199A) (Homo sapiens, UniProt Q96NY8, A72P/G73N/K197T/S199A) (assay: Binding to cell surface expressed Nectin-4 point mutant). Conditions: HEK-293T.
T1 construct: expressed in transfected cells; host or cells: HEK293T
T1 sequence (Q96NY8 32-510 A72P/G73N/K197T/S199A): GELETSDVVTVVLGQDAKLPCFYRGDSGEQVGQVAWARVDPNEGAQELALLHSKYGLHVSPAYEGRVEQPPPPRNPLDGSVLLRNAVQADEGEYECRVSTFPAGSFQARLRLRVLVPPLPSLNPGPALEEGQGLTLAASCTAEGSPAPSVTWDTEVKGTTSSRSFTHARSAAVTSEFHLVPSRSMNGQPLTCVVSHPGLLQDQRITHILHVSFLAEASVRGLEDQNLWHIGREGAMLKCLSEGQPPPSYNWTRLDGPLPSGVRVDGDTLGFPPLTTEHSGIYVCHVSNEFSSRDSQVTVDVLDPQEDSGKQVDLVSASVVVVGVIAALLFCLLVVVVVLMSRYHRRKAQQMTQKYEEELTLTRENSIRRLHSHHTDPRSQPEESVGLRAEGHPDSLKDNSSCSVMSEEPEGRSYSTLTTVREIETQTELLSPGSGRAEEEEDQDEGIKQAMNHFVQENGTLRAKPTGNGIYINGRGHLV
Excerpt: (§1) Combined with the published structures of the Nectin-4 domains, Nectin-4 mutations at surface exposed amino acids residues were designed. Nectin-4 domain structure was modelled based on Protein Data Bank reference: 4FRW (domains V et C1). Human Nectin-4 used was NCBI Reference Sequence: NP_112178.2, mouse Nectin-4 used was NCBI Reference Sequence: AAL79833.1, cynomolgus Nectin-4 used was NCBI Reference Sequence: XP_005541277.1, rat Nectin-4 used was NCBI Reference Sequence: NP_001102546.1. The cells expressing the Nectin-4 mutants are then be used for testing anti-Nectin-4 antibodies for loss of binding to different Nectin-4 mutants to identify antibodies that bind to the same site on Nectin-4. […] FIGS. 12A and 12B show a molecular model of the human Nectin-4 protein, indicating the position of substituted residues in mutants 7 (12A) and in mutants 7bis (12B); these mutants are in the C1 domain identify two sites at the junction of domain C1 and V domain that are on opposing faces of the Nectin-4 protein.
(§2) Nectin-4 mutants were generated by PCR. The sequences amplified were run on agarose gel and purified using the Macherey Nagel PCR Clean-Up Gel Extraction kit. The purified PCR products generated for each mutant were then ligated into an expression vector, with the ClonTech InFusion system. The vectors containing the mutated sequences were prepared as Miniprep and sequenced. After sequencing, the vectors containing the mutated sequences were prepared as Midiprep using the Promega PureYield™ Plasmid Midiprep System. HEK293T cells were grown in DMEM medium (Invitrogen), transfected with vectors using Invitrogen's Lipofectamine 2000 and incubated at 37° C. in a CO2 incubator for 48 hours prior to testing for transgene expression. The targeted amino acid mutations are shown in Table 2 below, listing the residue present in wild-type Nectin-4/position of residue/residue present in mutant Nectin-4, with position reference being to the Nectin-4 protein with leader peptide shown in SEQ ID NO: 1.
In the case of B1, the “association with Nectin-4 Mutant 7bis” value is reported as “−”.
B2 was tested, and the “association with Nectin-4 Mutant 7bis” value was “−”.
In the case of B3, the “association with Nectin-4 Mutant 7bis” value is reported as “+”.

Each molecule was assayed against T2, Nectin-4 Mutant 8 (T190A/T191Q/S193A) (Homo sapiens, UniProt Q96NY8, S193A/T190A/T191Q) in the same assay as above. Conditions: HEK-293T.
T2 construct: expressed in transfected cells; host or cells: HEK293T
T2 sequence (Q96NY8 32-510 T190A/T191Q/S193A): T1 sequence (Q96NY8 32-510 A72P/G73N/K197T/S199A) with P41A, N42G, T159A, T160Q, S162A, T166K, A168S
Excerpt: as §1, §2
With B1 the “association with Nectin-4 Mutant 8” value was “+”.
B2 was tested, and the “association with Nectin-4 Mutant 8” value was “+”.
With B3 the “association with Nectin-4 Mutant 8” value was “+”.

These molecules were tested against T3, Nectin-4 Mutant 1 (S58P/G59D/Q61A/N106D/P107A) (Homo sapiens, UniProt Q96NY8, G59D/N106D/P107A/Q61A/S58P) in the same assay as above. Conditions: HEK-293T.
T3 construct: expressed in transfected cells; host or cells: HEK293T
T3 sequence (Q96NY8 32-510 S58P/G59D/Q61A/N106D/P107A): T1 sequence (Q96NY8 32-510 A72P/G73N/K197T/S199A) with S27P, G28D, Q30A, P41A, N42G, N75D, P76A, T166K, A168S
Excerpt: as §1, §2
B1 was tested, and the “association with Nectin-4 Mutant 1” value was “+”.
For B2, the “association with Nectin-4 Mutant 1” value was “+”.
With B3 the “association with Nectin-4 Mutant 1” value was “−”.

These molecules were tested against T4, Nectin-4 Mutant 6 (H238A/I239T/H241Q) (Homo sapiens, UniProt Q96NY8, H238A/H241Q/I239T) in the same assay as above. Conditions: HEK-293T.
T4 construct: expressed in transfected cells; host or cells: HEK293T
T4 sequence (Q96NY8 32-510 H238A/I239T/H241Q): T1 sequence (Q96NY8 32-510 A72P/G73N/K197T/S199A) with P41A, N42G, T166K, A168S, H207A, I208T, H210Q
Excerpt: as §1, §2
B1 was tested, and the “association with Nectin-4 Mutant 6” value was “+”.
For B2, the “association with Nectin-4 Mutant 6” value was “+”.
In the case of B3, the “association with Nectin-4 Mutant 6” value is reported as “+”.
